Here are results for three molecules from patent US20140093973A1 (BOARD OF REGENTS OF THE UNIVERSITY OF OKLAHOMA, published 2014).

Read-outs that look alike come from different tables or passages of the source. Ends that are not written are not given here.

For assay [1], the target named is T1, soluble HLA-A*6601 (human).
T1 construct: Member of the panel of 53 single-specificity sHLA
The assay can be described thus: FP screen.

The target of assay [2] is T2, soluble HLA-B*1302 (human).
T2 construct: Member of the panel of 53 single-specificity sHLA
As to the kind of experiment: FP screen.

Assay [3] has as its target T3, soluble HLA-A*1102 (sHLA-A*1102) (human, UniProt P04439 25-308; P61769 21-119).
T3 construct: Recombinant soluble class I with endogenous peptides, made as m1
As to the kind of experiment: FP screen.

Assay [4] deals with T4, soluble HLA-B*4001 (human).
T4 construct: Member of the panel of 53 single-specificity sHLA
As to the kind of experiment: FP screen.

Assay [5] concerns the target T5, soluble HLA-A*6801 (sHLA-A*6801) (human).
T5 construct: Recombinant soluble class I with endogenous peptides, made as m1
The assay can be described thus: FP screen.

Assay [6] addresses T6, soluble HLA-B*4501 (human).
T6 construct: Member of the panel of 53 single-specificity sHLA
The assay can be described thus: FP screen.

The target in assay [7] is T7, soluble HLA-B*2705 (sHLA-B*2705) (human).
T7 construct: Recombinant soluble class I with endogenous peptides, made as m1; negative control
As to the kind of experiment: FP screen.

Assay [8] has as its target T8, soluble HLA-A*3002 (human).
T8 construct: Member of the panel of 53 single-specificity sHLA
The assay can be described thus: FP screen.

Assay [9] addresses T9, soluble HLA-A*2301 (human).
T9 construct: Member of the panel of 53 single-specificity sHLA
The assay can be described thus: FP screen.

For assay [10], the target named is soluble HLA-A*0201 (sHLA-A*0201) (human). The assay can be described thus: FP screen.
For assay [11], the target named is T10, soluble HLA-B*4402 (human).
T10 construct: Member of the panel of 53 single-specificity sHLA
As to the kind of experiment: FP screen.

The target in assay [12] is T11, soluble HLA-B*1501 (human).
T11 construct: Member of the panel of 53 single-specificity sHLA
As to the kind of experiment: FP screen.

The target of assay [13] is T12, soluble HLA-B*1801 (human).
T12 construct: Member of the panel of 53 single-specificity sHLA
The assay can be described thus: FP screen.

Assay [14] concerns the target T13, soluble HLA-A*0301 (human).
T13 construct: Member of the panel of 53 single-specificity sHLA
The assay can be described thus: FP screen.

Assay [15] concerns the target T14, soluble HLA-A*6901 (sHLA-A*6901) (human).
T14 construct: Recombinant soluble class I with endogenous peptides, made as m1
As to the kind of experiment: FP screen.

In assay [16] the target is T15, soluble HLA-B*1512 (human).
T15 construct: Member of the panel of 53 single-specificity sHLA
As to the kind of experiment: FP screen.

Assay [17] concerns the target T16, soluble HLA-B*4002 (human).
T16 construct: Member of the panel of 53 single-specificity sHLA
As to the kind of experiment: FP screen.

Assay [18] deals with T17, soluble HLA-A*2402 (human).
T17 construct: Member of the panel of 53 single-specificity sHLA
The assay can be described thus: FP screen.

Assay [19] addresses T18, soluble HLA-A*2902 (human).
T18 construct: Member of the panel of 53 single-specificity sHLA
The assay can be described thus: FP screen of 53 sHLA with FITC-peptide.

Assay [20] has as its target T19, soluble HLA-A*0101 (human).
T19 construct: Member of the panel of 53 single-specificity sHLA
As to the kind of experiment: FP screen of 53 sHLA with FITC-peptide.

Another assay concerns the target T20, soluble HLA-A*3402 (human).
T20 construct: Member of the panel of 53 single-specificity sHLA
The assay can be described thus: FP screen of 53 sHLA with FITC-peptide.

Assay [21] has as its target T13, soluble HLA-A*0301. As to the kind of experiment: FP screen of 53 sHLA with FITC-peptide.
The target of assay [22] is T21, soluble HLA-A*4301 (sHLA-A*4301) (human).
T21 construct: Recombinant soluble class I with endogenous peptides, made as m1
The assay can be described thus: FP screen.

Assay [23] deals with T1, soluble HLA-A*6601. The assay can be described thus: FP screen. This is another data set of the same source.
Assay [24] concerns the target T2, soluble HLA-B*1302. The assay can be described thus: FP screen. The source holds these as a separate data set.
Assay [25] addresses T4, soluble HLA-B*4001. The assay can be described thus: FP screen. This is another data set of the same source.
The target of assay [26] is T19, soluble HLA-A*0101. As to the kind of experiment: FP screen.
In another assay the target is T22, soluble HLA-A*3601 (human).
T22 construct: Member of the panel of 53 single-specificity sHLA
As to the kind of experiment: FP screen.

Assay [27] has as its target T6, soluble HLA-B*4501. As to the kind of experiment: FP screen. The source holds these as a separate data set.
The target in assay [28] is T7, soluble HLA-B*2705 (sHLA-B*2705). The assay can be described thus: FP screen. This is another data set of the same source.
Assay [29] deals with T8, soluble HLA-A*3002. As to the kind of experiment: FP screen. This is another data set of the same source.
Assay [30] concerns the target T9, soluble HLA-A*2301. The assay can be described thus: FP screen. This is another data set of the same source.
The target of assay [31] is soluble HLA-A*0201 (sHLA-A*0201) (human). The assay can be described thus: FP screen. The source holds these as a separate data set.
Assay [32] concerns the target T10, soluble HLA-B*4402. The assay can be described thus: FP screen. This is another data set of the same source.
Assay [33] concerns the target T11, soluble HLA-B*1501. As to the kind of experiment: FP screen. The source holds these as a separate data set.
The target of assay [34] is T12, soluble HLA-B*1801. The assay can be described thus: FP screen. This is another data set of the same source.
Assay [35] concerns the target T14, soluble HLA-A*6901 (sHLA-A*6901). The assay can be described thus: FP screen. This is another data set of the same source.
In a further assay the target is T23, soluble HLA-A*2601 (human).
T23 construct: Member of the panel of 53 single-specificity sHLA
As to the kind of experiment: FP screen.

Assay [36] concerns the target T15, soluble HLA-B*1512. The assay can be described thus: FP screen. This is another data set of the same source.
Assay [37] deals with T16, soluble HLA-B*4002. The assay can be described thus: FP screen. The source holds these as a separate data set.
Assay [38] has as its target T17, soluble HLA-A*2402. The assay can be described thus: FP screen. The source holds these as a separate data set.
Assay [39] deals with T18, soluble HLA-A*2902. As to the kind of experiment: FP screen of 53 sHLA with FITC-peptide. The source holds these as a separate data set.
Assay [40] concerns the target T1, soluble HLA-A*6601. As to the kind of experiment: FP screen of 53 sHLA with FITC-peptide.
Assay [41] addresses T11, soluble HLA-B*1501. As to the kind of experiment: FP screen of 53 sHLA with FITC-peptide.

For the molecule YLEPAKAKY (also: FITC-labeled, position not given here) [YLEPAKAKY, FITC-labeled A1-like peptide], the binding result (with soluble HLA-A*6601 [1]; in the assay with soluble HLA-B*1302 [2]; in assay [3]; with soluble HLA-B*4001 [4]; in assay [5]; with soluble HLA-B*4501 [6]) was “no binding (tested: 100 ug/ml sHLA)” in each case. Moreover, the binding result (in assay [7]; with soluble HLA-A*3002 [8]; with soluble HLA-A*2301 [9]; in assay [10]; with soluble HLA-B*4402 [11]; with soluble HLA-B*1501 [12]) was “no binding (tested: 100 ug/ml sHLA)” throughout. Besides, the binding result (with soluble HLA-B*1801 [13]; in the assay with soluble HLA-A*0301 [14]; in [15]; with soluble HLA-B*1512 [16]; in the assay with soluble HLA-B*4002 [17]; in the assay with soluble HLA-A*2402 [18]) was “no binding (tested: 100 ug/ml sHLA)” throughout. Besides, the binding result with soluble HLA-A*2902 [19] and with soluble HLA-A*0101 [20] was “binds” in each case.

Consider KVFPKALINK (also: FITC-labeled, position not given here) [KVFPKALINK, FITC-labeled A3-like peptide], for which the binding result in the assay with soluble HLA-A*3402 is given as “binds”; in the assay with soluble HLA-A*0301 [21] it was “binds”; in assay [22] it was “no binding (tested: 100 ug/ml sHLA)”; with soluble HLA-A*6601 [23], “no binding (tested: 100 ug/ml sHLA)”; with soluble HLA-B*1302 [24] it was “no binding (tested: 100 ug/ml sHLA)”; with soluble HLA-B*4001 [25], “no binding (tested: 100 ug/ml sHLA)”. Besides, the binding result (in the assay with soluble HLA-A*0101 [26]; with soluble HLA-A*3601; with soluble HLA-B*4501 [27]; in assay [28]; with soluble HLA-A*3002 [29]; with soluble HLA-A*2301 [30]) was “no binding (tested: 100 ug/ml sHLA)” each time. In addition, the binding result (in [31]; with soluble HLA-B*4402 [32]; with soluble HLA-B*1501 [33]; in the assay with soluble HLA-B*1801 [34]; in assay [35]; with soluble HLA-A*2601) was “no binding (tested: 100 ug/ml sHLA)” in each case. In addition, the binding result with soluble HLA-B*1512 [36], in the assay with soluble HLA-B*4002 [37] and with soluble HLA-A*2402 [38] was “no binding (tested: 100 ug/ml sHLA)” each time.

Turning to SLFRAVIKK (also: FITC-labeled, position not given here) [SLFRAVIKK, FITC-labeled A3-like peptide], the binding result is “binds” in the assay with soluble HLA-A*2902 [39]; “binds” with soluble HLA-A*6601 [40]; “binds” in the assay with soluble HLA-A*3402; “binds” in the assay with soluble HLA-B*1501 [41]; “binds” in the assay with soluble HLA-A*0301 [21]; “no binding (tested: 100 ug/ml sHLA)” in assay [22]. Also, the binding result (in the assay with soluble HLA-B*4001 [25]; with soluble HLA-A*0101 [26]; with soluble HLA-A*3601; in the assay with soluble HLA-B*4501 [27]; in assay [28]; in the assay with soluble HLA-A*3002 [29]) was “no binding (tested: 100 ug/ml sHLA)” throughout. Besides, the binding result (with soluble HLA-A*2301 [30]; in assay [31]; in the assay with soluble HLA-B*4402 [32]; with soluble HLA-B*1801 [34]; in assay [35]; with soluble HLA-A*2601) was “no binding (tested: 100 ug/ml sHLA)” each time. The binding result with soluble HLA-B*1512 [36], with soluble HLA-B*4002 [37] and in the assay with soluble HLA-A*2402 [38] was “no binding (tested: 100 ug/ml sHLA)” in each case.
